Experimental data as given in patent US20130331550A1 (TECHNISCHE UNIVERSITAET MUENCHEN, published 2013).

Molecular target: the molecule itself
Test: analytical size exclusion chromatography and analytical ultracentrifugation (sedimentation equilibrium); self-association (dimer) not seen
Experimental: Bovine serum albumin (66 kDa, Vᵣ=9.861 ml), carbonic anhydrase (29 kDa, Vᵣ=12.35 ml), myoglobin (17.05 kDa, Vᵣ=13.244 ml), cytochrome C (12.4 kDa, Vᵣ=14.11 ml), and aprotinin (6.5 kDa, Vᵣ=16.35 ml) were used as protein size standards for calibration of the column while the void volume was determined with blue dextran (V₀=8.08 ml).
Sedimentation equilibrium experiments were performed using an XL-I analytical ultracentrifuge and a Ti-60 rotor equipped with a UV/Vis as well as interference detector (Beckman, Fullerton, Calif.). An 0.8 mg/ml solution of the purified recombinant Blc in 150 mM NaCl, 1 mM EDTA, 100 M Tris/HCl pH 8.0 was applied to six-sector 12 mm path length cells. The samples were centrifuged at 25000 rpm for 72 h at 4° C., until equilibrium was reached, whereby the protein gradient was measured by UV absorption at 280 nm.

B1: recombinant Blc (Escherichia coli bacterial lipocalin, Cys1Ala/Cys113Ser, C-terminal Strep-tag II, as encoded on pBlc2) (other)
chain: ASSPTPPRGVTVVNNFDAKRYLGTWYEIARFDHRFERGLEKVTATYSLRDDGGLNVINKGYNPDRGMWQQSEGKAYFTGAPTRAALKVSFFGPFYGGYNVIALDREYRHALVSGPDRDYLWILSRTPTISDEVKQEMLAVATREGFDVSKFIWVQQPGSAWSHPQFEK
notes: The construct has 168 residues (159 + 9 tag residues)
binding result: no binding (tested: about 40 µM)
